# According to article PMC4701952:
# T1: SEP3 full length wild type (A. thaliana), O22456
# T1 chain: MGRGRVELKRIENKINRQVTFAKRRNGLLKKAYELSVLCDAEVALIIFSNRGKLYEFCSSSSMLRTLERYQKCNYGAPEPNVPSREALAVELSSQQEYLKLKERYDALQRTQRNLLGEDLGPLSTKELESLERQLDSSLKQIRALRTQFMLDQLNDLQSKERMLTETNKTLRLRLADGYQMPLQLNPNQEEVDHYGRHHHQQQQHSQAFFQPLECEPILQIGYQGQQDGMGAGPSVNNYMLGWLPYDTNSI
# B1: SEP3 full length wild type, O22456 1-251 (natural protein)
# chain: MGRGRVELKRIENKINRQVTFAKRRNGLLKKAYELSVLCDAEVALIIFSNRGKLYEFCSSSSMLRTLERYQKCNYGAPEPNVPSREALAVELSSQQEYLKLKERYDALQRTQRNLLGEDLGPLSTKELESLERQLDSSLKQIRALRTQFMLDQLNDLQSKERMLTETNKTLRLRLADGYQMPLQLNPNQEEVDHYGRHHHQQQQHSQAFFQPLECEPILQIGYQGQQDGMGAGPSVNNYMLGWLPYDTNSI
# Target: T1, SEP3 full length wild type (A. …)
# Assay: native gel or EMSA; in vitro translated proteins (not purified) with Cy5 labelled SOC1 promoter DNA in which CArG box 1 or CArG box 2 is mutated (one site left)
# Settings: remark: other sources report otherwise
binder,measurement,value
B1,stoichiometry N,4
